Assay results published in IntAct's records for PubMed 15935762.

B1: Protein pop-1 (Caenorhabditis elegans), Q10666 (parent)
chain: MMADEELGDEVKVFRRDEDADDDPMISGETSEQQLADDKKEAVMEAELDGAGRNPSIDVLKSAFPKVEPMSPSFPGLMSHFSPGYSAAALPMFMPLFMNPYAAALRSPSLMFPMGAMSPTFPMFPPSPVYGAAIAAAAAKQHFENMAPLNMRAGHPMNQMGMPPYMHPSSMAPQNVDRRAQGGGKAKKDDHVKKPLNAFMWFMKENRKALLEEIGNNEKQSAELNKELGKRWHDLSKEEQAKYFEMAKKDKETHKERYPEWSARENYAVNKKKTKKRRDKSIPSENNDQKKCRARFGVNNTEMWCKFCKRKKKCEYATDRSGGSDITDSQDGRGTSGAYSSSSESPSPKANAGIALTTQQQQAAMMHTMLMQMRLGSTTGASTHVPSPLASSSAGRSPLDANASDSESDVEEEEDEQIDPTVMQQTHDMLMQESMCTI
partner: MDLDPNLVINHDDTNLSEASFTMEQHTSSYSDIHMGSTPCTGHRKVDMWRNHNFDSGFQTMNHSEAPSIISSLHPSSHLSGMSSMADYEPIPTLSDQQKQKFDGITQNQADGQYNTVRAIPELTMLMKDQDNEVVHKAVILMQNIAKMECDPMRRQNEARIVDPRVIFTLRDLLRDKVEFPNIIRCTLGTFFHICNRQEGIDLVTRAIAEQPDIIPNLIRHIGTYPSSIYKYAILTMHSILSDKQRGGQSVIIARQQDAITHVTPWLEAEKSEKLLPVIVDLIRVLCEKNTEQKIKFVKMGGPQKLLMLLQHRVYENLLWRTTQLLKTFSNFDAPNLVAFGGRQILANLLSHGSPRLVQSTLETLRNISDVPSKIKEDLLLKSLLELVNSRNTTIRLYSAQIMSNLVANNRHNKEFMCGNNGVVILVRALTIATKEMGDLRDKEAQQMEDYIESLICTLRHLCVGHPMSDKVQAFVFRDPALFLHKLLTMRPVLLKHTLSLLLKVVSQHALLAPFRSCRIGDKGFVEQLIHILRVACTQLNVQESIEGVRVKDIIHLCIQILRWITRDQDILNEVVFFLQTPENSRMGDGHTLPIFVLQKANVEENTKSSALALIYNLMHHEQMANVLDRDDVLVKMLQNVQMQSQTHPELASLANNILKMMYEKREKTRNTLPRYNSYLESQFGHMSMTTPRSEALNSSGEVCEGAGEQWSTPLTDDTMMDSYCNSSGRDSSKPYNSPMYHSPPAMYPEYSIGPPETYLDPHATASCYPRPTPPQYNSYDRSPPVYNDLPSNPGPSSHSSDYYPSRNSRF
B2: Protein pop-1 (Caenorhabditis elegans), Q10666 (parent)
chain: B1 chain
partner: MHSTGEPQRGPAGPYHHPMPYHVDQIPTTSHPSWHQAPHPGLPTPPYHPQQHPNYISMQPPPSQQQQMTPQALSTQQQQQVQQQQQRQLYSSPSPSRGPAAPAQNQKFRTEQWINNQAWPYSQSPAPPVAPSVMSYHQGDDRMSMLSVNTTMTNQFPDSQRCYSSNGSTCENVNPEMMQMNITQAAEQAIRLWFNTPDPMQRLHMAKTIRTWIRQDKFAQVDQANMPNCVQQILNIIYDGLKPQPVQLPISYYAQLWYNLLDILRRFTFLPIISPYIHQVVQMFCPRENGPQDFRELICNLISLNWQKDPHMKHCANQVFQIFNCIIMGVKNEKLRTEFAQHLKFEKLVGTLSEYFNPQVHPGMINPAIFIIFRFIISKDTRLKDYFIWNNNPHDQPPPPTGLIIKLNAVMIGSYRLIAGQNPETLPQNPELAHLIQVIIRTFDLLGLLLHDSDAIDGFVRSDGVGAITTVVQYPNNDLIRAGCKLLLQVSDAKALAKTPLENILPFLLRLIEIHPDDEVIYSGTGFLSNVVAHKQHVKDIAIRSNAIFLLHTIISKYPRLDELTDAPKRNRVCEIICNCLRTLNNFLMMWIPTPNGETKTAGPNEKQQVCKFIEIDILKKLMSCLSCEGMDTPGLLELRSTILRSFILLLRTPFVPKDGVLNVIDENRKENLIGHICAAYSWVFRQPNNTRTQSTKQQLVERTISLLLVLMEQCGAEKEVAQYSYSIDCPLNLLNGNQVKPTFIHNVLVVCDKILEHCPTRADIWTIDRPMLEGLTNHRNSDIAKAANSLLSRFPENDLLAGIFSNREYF

Variants of: B1
Conditions: with bar1_caeel bar-1, Q18825

| Variant | effect of a mutation on the interaction |
| --- | --- |
| MMADEELGEEVKVFRRDEDADDDPMISGETSEQQLADDKKEAVMEAELDGAGRNPSIDVLKSAFPKVEPMSPSFPGLMSHFSPGYSAAALPMFMPLFMNPYAAALRSPSLMFPMGAMSPTFPMFPPSPVYGAAIAAAAAKQHFENMAPLNMRAGHPMNQMGMPPYMHPSSMAPQNVDRRAQGGGKAKKDDHVKKPLNAFMWFMKENRKALLEEIGNNEKQSAELNKELGKRWHDLSKEEQAKYFEMAKKDKETHKERYPEWSARENYAVNKKKTKKRRDKSIPSENNDQKKCRARFGVNNTEMWCKFCKRKKKCEYATDRSGGSDITDSQDGRGTSGAYSSSSESPSPKANAGIALTTQQQQAAMMHTMLMQMRLGSTTGASTHVPSPLASSSAGRSPLDANASDSESDVEEEEDEQIDPTVMQQTHDMLMQESMCTI [D9E] | decreasing interaction strength |

Variants of: B2
Conditions: with ctnh1_caeel sys-1, Q9XVI2

| Variant | effect of a mutation on the interaction |
| --- | --- |
| MMADEELGEEVKVFRRDEDADDDPMISGETSEQQLADDKKEAVMEAELDGAGRNPSIDVLKSAFPKVEPMSPSFPGLMSHFSPGYSAAALPMFMPLFMNPYAAALRSPSLMFPMGAMSPTFPMFPPSPVYGAAIAAAAAKQHFENMAPLNMRAGHPMNQMGMPPYMHPSSMAPQNVDRRAQGGGKAKKDDHVKKPLNAFMWFMKENRKALLEEIGNNEKQSAELNKELGKRWHDLSKEEQAKYFEMAKKDKETHKERYPEWSARENYAVNKKKTKKRRDKSIPSENNDQKKCRARFGVNNTEMWCKFCKRKKKCEYATDRSGGSDITDSQDGRGTSGAYSSSSESPSPKANAGIALTTQQQQAAMMHTMLMQMRLGSTTGASTHVPSPLASSSAGRSPLDANASDSESDVEEEEDEQIDPTVMQQTHDMLMQESMCTI [D9E] | disrupting interaction strength |
